{
  "source": "patent US11266762B2",
  "about": "“Methods and kits for producing a fibrin matrix” (Kuros Biosurgery AG, priority 2018, dated 2022)",
  "key": {"fibrin matrix": {"target": "T1, fibrin matrix (Homo sapiens, UniProt P02671+P02675+P02679)", "T1 construct": "thrombin on one hand cleaves fibrinogen leading to fibrin polymers; purchased Baxter Healthcare AG (ARTISS®)", "T1 sequence (P02671 36-866 limits assumed)": "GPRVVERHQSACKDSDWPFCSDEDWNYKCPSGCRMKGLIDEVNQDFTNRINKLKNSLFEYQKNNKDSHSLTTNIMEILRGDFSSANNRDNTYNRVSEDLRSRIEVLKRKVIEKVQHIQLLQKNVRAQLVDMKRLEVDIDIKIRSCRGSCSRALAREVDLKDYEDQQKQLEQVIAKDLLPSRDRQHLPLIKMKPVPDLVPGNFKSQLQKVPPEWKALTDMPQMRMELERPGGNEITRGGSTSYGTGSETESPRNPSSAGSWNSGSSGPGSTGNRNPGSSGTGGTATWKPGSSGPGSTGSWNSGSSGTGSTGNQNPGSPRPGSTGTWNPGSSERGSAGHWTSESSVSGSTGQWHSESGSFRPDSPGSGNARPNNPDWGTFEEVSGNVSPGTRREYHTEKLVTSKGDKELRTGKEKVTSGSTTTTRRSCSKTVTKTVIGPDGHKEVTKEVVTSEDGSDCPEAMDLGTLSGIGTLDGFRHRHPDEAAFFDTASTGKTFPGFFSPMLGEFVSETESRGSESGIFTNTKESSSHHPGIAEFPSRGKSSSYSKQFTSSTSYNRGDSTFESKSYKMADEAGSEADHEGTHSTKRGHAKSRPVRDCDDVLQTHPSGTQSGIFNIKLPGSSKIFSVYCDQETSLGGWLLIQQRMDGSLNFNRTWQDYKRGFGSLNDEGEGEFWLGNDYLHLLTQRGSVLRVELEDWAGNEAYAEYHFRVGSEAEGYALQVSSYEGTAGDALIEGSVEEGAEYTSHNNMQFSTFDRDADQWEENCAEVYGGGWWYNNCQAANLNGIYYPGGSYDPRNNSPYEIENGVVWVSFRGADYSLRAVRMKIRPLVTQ", "T1 sequence (P02675 45-491 limits assumed)": "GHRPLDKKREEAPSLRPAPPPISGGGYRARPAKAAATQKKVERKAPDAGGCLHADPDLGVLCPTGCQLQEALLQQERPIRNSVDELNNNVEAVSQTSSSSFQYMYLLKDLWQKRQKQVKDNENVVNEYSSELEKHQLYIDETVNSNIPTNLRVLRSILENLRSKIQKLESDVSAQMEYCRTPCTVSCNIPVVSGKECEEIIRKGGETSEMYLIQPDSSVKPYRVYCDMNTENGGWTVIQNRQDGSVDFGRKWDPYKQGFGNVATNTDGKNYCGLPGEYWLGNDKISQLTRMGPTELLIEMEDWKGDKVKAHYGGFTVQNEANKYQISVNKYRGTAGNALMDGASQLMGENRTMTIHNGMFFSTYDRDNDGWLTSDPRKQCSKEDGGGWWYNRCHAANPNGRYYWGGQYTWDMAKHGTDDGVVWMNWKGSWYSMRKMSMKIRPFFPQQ", "T1 sequence (P02679 27-433 limits assumed)": "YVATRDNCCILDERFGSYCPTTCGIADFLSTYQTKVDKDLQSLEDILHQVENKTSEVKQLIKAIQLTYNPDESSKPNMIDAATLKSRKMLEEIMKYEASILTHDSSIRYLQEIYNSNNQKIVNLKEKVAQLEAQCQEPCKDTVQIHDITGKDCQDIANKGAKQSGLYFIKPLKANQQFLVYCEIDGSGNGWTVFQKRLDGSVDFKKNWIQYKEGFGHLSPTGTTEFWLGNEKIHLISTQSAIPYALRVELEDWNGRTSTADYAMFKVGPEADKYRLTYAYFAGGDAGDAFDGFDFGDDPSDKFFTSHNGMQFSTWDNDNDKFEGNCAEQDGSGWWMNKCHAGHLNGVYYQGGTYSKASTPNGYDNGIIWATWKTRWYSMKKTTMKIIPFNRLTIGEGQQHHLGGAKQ", "assay": "Retention assay: covalent binding of TGplPTH1-34 to fibrin matrix (unbound peptide extracted, PTH1-34 ELISA)", "conditions": "for % unbound TGplPTH1-34 in fibrin matrix: 1 mg/ml final; for Average % unbound ± SD: both experiments", "method": "The percentage of covalent TGplPTH1-34 binding to fibrin matrices was determined in fibrin matrices prepared with two different methods using an indirect assay. With this assay, non-covalently bound TGplPTH1-34 that can be washed out of the matrix is determined. In the first method (pre-mixing), the two components of the fibrin sealant, ARTISS® were thawed and TGplPTH1-34 was premixed with the fibrinogen component at a concentration of 2 mg/ml. Immediately after mixing, the two components of the fibrin sealant were frozen again and stored at −20° C. The samples were then thawed, and the two components of the sealant were mixed. The final concentration of TGplPTH1-34 in mixed fibrin sealant was 1 mg/ml.\nIn the second method, the two fibrin sealant components were directly mixed with TGplPTH1-34 solubilized in water to achieve a final concentration of 1 mg/ml (see FIG. 1A).\nTo evaluate the amount of TGplPTH1-34 covalently bound to the fibrin matrix with the two methods, samples prepared by either of the two methods were subjected to a retention assay. Aliquots of 50 μl were added to 1.5 ml Eppendorf tubes. The fibrin matrices were then incubated at 37° C. for 1 hour. Unbound TGplPTH1-34 was extracted from the fibrin matrix by addition of 1.5 ml extraction buffer (50 mM Tris pH 9.4, 1M NaCl, 0.1% Tween 20) supplemented with protease Inhibitors (Roche Cat #11836153001 cOmplete™, Mini Protease Inhibitor Co) and incubated under constant shaking. After 3 hours the supernatant was collected and 1.5 ml of fresh extraction buffer was added to the fibrin matrix. This extraction step was repeated after 6, 24, 30 and 48 h. Collected supernatants were stored at −20° C. until further processing.\nTo determine the amount of unbound TGplPTH1-34, the 5 collected supernatants were thawed and pooled. TGplPTH1-34 in the pool was determined by ELISA with a commercial PTH1-34 ELISA kit (Immutopics, Cat *60-3900) following the manufacturer's recommendation. Two independent experiments (three samples per fibrin matrix and experiment) were performed with both preparation methods and the amount of TGplPTH1-34 not bound to the fibrin matrix was determined."}, "fibrinogen solution": {"system": "fibrinogen solution", "assay": "Stability of TGplPTH1-34 over time in fibrinogen solution stored at room temperature (HPLC-UV)", "format": "physicochemical", "conditions": "for TGplPTH1-34 content Mean ± SD / % loss of TGplPTH1-34: in fibrinogen solution; for TGplPTH1-34 content Mean ± SD: room temperature (20-25° C.); for % loss of TGplPTH1-34: room temperature", "method": "In order to evaluate the stability of TGplPTH1-34 in the fibrinogen component over time, TGplPTH1-34 was mixed with a fibrinogen solution and stored at room temperature.\nTGplPTH1-34 was added to fibrinogen solution at a concentration of 266 μg/ml and incubated at room temperature for up to 34 days. Samples were taken at indicated time points and TGplPTH1-34 concentration was determined by HPLC. Briefly, TGplPTH1-34 was quantified with a HPLC-UV method using a Zorbax Agilent RP18 column (4.6×150 mmm, 5 μm, 300 A) for the separation of related substances. As eluent A: 0.1% TFA, 1% ACN in water and as eluent B: 0.1% TFA in ACN was used. The gradient was 0 min. 26% B; 15 min 38% B; 18 min. 90% B; 22 min 26% B; 24 min 26% B. The injection volume was 20 μl and the flow rate was 1 ml/min. The column temperature was 35° C. A reference standard was used for the calibration curve.\nThe results from the TGplPTH1-34 stability analysis in fibrinogen stored at room temperature (20-25° C.) for up to 34 days are shown in Table 2."}},
  "note": "Where “and” joins values, the source holds several entries; their conditions need not be identical. Equal entries are not always repeated.",
  "data": [
    {"substance": "TGplPTH1-34: PTH fusion peptide: TG substrate domain, plasmin cleavage site, PTH1-34; NQEQVSPLYKNRSVSEIQLMHNLGKHLNSMERVEWLRKKLQDVHNF (Synthetic fusion protein)", "values": [
      {"measurement": "% unbound TGplPTH1-34 in fibrin matrix", "setting": "fibrin matrix; First method (pre-mixing with fibrinogen component, refrozen), Experiment 1, samples 1-3", "result": "16.8% and 14.4% and 13.9%"},
      {"measurement": "% unbound TGplPTH1-34 in fibrin matrix", "setting": "fibrin matrix; First method (pre-mixing with fibrinogen component, refrozen), Experiment 2, samples 1-3", "result": "14.7% and 10.2% and 15.1%"},
      {"measurement": "Average % unbound ± SD", "setting": "fibrin matrix; First method (pre-mixing)", "result": "14.2 ± 2.2", "unit": "%"},
      {"measurement": "Average % unbound ± SD", "setting": "fibrin matrix; Second method (direct mixing)", "result": "14.0 ± 1.4", "unit": "%"},
      {"measurement": "% unbound TGplPTH1-34 in fibrin matrix", "setting": "fibrin matrix; Second method (sealant components directly mixed with TGplPTH1-34 in water), Experiment 1, samples 1-3", "result": "13.9% and 11.3% and 15.4%"},
      {"measurement": "% unbound TGplPTH1-34 in fibrin matrix", "setting": "fibrin matrix; Second method (sealant components directly mixed with TGplPTH1-34 in water), Experiment 2, samples 1-3", "result": "14.4% and 14.7%"},
      {"measurement": "% of the product degraded", "setting": "fibrinogen solution; 3-5 days in fibrinogen solution at room temperature (time frame for manufacturing)", "result": "4.3-7.8%"},
      {"measurement": "TGplPTH1-34 content Mean ± SD", "setting": "fibrinogen solution; day 0, added at 266 μg/ml", "result": "232 ± 0.99", "unit": "µg/mL"},
      {"measurement": "% loss of TGplPTH1-34", "setting": "fibrinogen solution; day 3", "result": "−4.3", "unit": "%"},
      {"measurement": "TGplPTH1-34 content Mean ± SD", "setting": "fibrinogen solution; day 3", "result": "222 ± 0.80", "unit": "µg/mL"},
      {"measurement": "% loss of TGplPTH1-34", "setting": "fibrinogen solution; day 5", "result": "−7.8", "unit": "%"},
      {"measurement": "TGplPTH1-34 content Mean ± SD", "setting": "fibrinogen solution; day 5", "result": "214 ± 1.48", "unit": "µg/mL"},
      {"measurement": "% loss of TGplPTH1-34", "setting": "fibrinogen solution; day 7", "result": "−10.3", "unit": "%"},
      {"measurement": "TGplPTH1-34 content Mean ± SD", "setting": "fibrinogen solution; day 7", "result": "208 ± 1.76", "unit": "µg/mL"},
      {"measurement": "% loss of TGplPTH1-34", "setting": "fibrinogen solution; day 14", "result": "−17.2", "unit": "%"},
      {"measurement": "TGplPTH1-34 content Mean ± SD", "setting": "fibrinogen solution; day 14", "result": "192 ± 2.28", "unit": "µg/mL"},
      {"measurement": "% loss of TGplPTH1-34", "setting": "fibrinogen solution; day 21", "result": "−24.1", "unit": "%"},
      {"measurement": "TGplPTH1-34 content Mean ± SD", "setting": "fibrinogen solution; day 21", "result": "176 ± 1.57", "unit": "µg/mL"},
      {"measurement": "% loss of TGplPTH1-34", "setting": "fibrinogen solution; day 29", "result": "−25.9", "unit": "%"},
      {"measurement": "TGplPTH1-34 content Mean ± SD", "setting": "fibrinogen solution; day 29", "result": "172 ± 2.51", "unit": "µg/mL"},
      {"measurement": "% loss of TGplPTH1-34", "setting": "fibrinogen solution; day 34", "result": "−28.0", "unit": "%"},
      {"measurement": "TGplPTH1-34 content Mean ± SD", "setting": "fibrinogen solution; day 34", "result": "167 ± 1.2", "unit": "µg/mL"},
      {"measurement": "degradation of the fusion peptide in fibrinogen solution", "setting": "fibrinogen solution; exposure for more than 5 days at room temperature", "result": "substantial degradation"}
    ]}
  ]
}
